Test results taken from ChEMBL document CHEMBL1133169, “A light-inactivated antibiotic” (2000).

Substrate: CC(=O)OCC1=C(C(=O)O)N2C(=O)[C@@H](NC(=O)[C@@H](Cc3ccccc3)NNC(=O)OCc3ccccc3[N+](=O)[O-])C2SC1
Experiment: The turnover kinetic parameter (Km) evaluated for Class A TEM-1 beta-lactamase

B1: Beta-lactamase TEM (Escherichia coli), P62593 (protein)
chain: MSIQHFRVALIPFFAAFCLPVFAHPETLVKVKDAEDQLGARVGYIELDLNSGKILESFRPEERFPMMSTFKVLLCGAVLSRVDAGQEQLGRRIHYSQNDLVEYSPVTEKHLTDGMTVRELCSAAITMSDNTAANLLLTTIGGPKELTAFLHNMGDHVTRLDRWEPELNEAIPNDERDTTMPAAMATTLRKLLTGELLTLASRQQLIDWMEADKVAGPLLRSALPAGWFIADKSGAGERGSRGIIAALGPDGKPSRIVVIYTTGSQATMDERNRQIAEIGASLIKHW
Work on B1 yielded a Km of 80 µM.
